The target of the assay is HLA-A2 molecules on the surface of human T2 cells (Homo sapiens, UniProt P04439, D140Y/D185E/D98H/E176V/E277Q/G131W/G231S/I119V/I121R/I166T/I218V/L300P/L318F/N151K/N90K/P208A/P217A/Q86G/Q94H/R138H/R169H/T345S). The experiment in a line: Peptide stability assay (peptide/HLA-A2 binding stability post-Brefeldin A).

Consider 2 sequences from patent US9096681B2, “XBP1, CD138, and CS1 peptides” (Dana-Farber Cancer Institute, Inc., priority 2008, dated 2015).

“NISPWILAV (listed as Homo sapiens) [XBP1184-192, native non-spliced XBP1 peptide]”: the HLA-A2 binding stability entry (non-spliced XBP1 peptides (FIG. 2), 0, 2, 4, 6 and 18 hours post-Brefeldin A) is on record as “significantly lower level of HLA-A2 binding stability as compared to the influenza virus protein matrix peptide58-66”.

On to “GLVGLIFAV (listed as Homo sapiens) [CD138 #2p, native CD138 peptide]”, for which the HLA-A2 binding stability entry (CD138 peptide (FIG. 12), 0 hr, 2 hr, 4 hr, 6 hr, or overnight) was “nearly equivalent to influenza virus protein matrix peptide58-66”.
